Experiment [1] concerns the target T1, extracellular domain of activin receptor type IIB (ActRIIBecd), biotinylated (Homo sapiens (Human), UniProt Q13705 27-117, amino-biotinylated with amine-PEG3-Biotin).
T1 construct: immobilised on a streptavidin-coated sensor chip; also called biotinylated ActRIIBecd; extracellular domain of ActRIIB
T1 sequence: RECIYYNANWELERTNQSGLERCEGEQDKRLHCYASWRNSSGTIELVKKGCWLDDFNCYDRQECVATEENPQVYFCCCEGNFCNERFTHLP
Put plainly: BIAcore SPR, biotinylated ActRIIBecd on chip; SD ±12.12 nM. How it is done: (§1) Biosensor experiments. In one embodiment, experiments were performed on a BIAcore™ T100/T200 instrument (Pharmacia Biosensor AB) in the multichannel mode (serial flow path involving flow cells 1+2+3+4). Flow rate was 10 μl/min; temperature was 25° C.; and data were recorded at 2.5 points/s. All four segments of a sensor chip CMS were coated with streptavidin (Sigma) to a density of 2000 pg/mm² (2000 resonance units) by the aminocoupling procedure. ActRIIBecd (10 mg) and amine-PEG3-Biotin (10 mg, Pierce, Rockford, Ill.) were dissolved in 200 μl H₂O and 10 mg NaCNBH₃ was added to prepare biotinylated ActRIIBecd. The reaction mixture was heated at 70° C. for 24 h, after that a further 10 mg NaCNBH₃ was added and the reaction was heated at 70° C. for another 24 h. After cooling to room temperature, the mixture was desalted with the spin column (3,000 molecular weight cut off (MWCO)). […] Sensograms were recorded during flow of the analyte (the ActRIIBecd-associated polypeptides (i.e., domains) as previously described) first through flow cell 1 (control) then through flow cell 2 (biotinylated ActRIIBecd). […] The sensograms obtained at 1.11, 3.33, 10, 30, and 90 nM analyte were evaluated for equilibrium binding, association rate, and dissociation rate by using the programs supplied with the instrument (BIA evaluation 2.1; Software Handbook. 1995; Pharmacia Biosensor AB).

Experiment [2] has as its target T1, extracellular domain of activin …. Put plainly: BIAcore SPR, biotinylated ActRIIBecd on chip; SD ±23.17 nM. How it is done: as §1
In general terms: In SPR one partner is held on a chip, and binding of the other changes the refractive index at the surface.

The target is the same in experiment [3]. Put plainly: BIAcore SPR as Example 5 (method not restated); SD ±1.41 nM. How it is done:
as §1

For experiment [4] the target is unchanged. Kind of experiment: Mean KD column of Table 5; method not restated (BIAcore as Example 5); species also listed in Table 4. How it is done: Biosensor experiments. In one embodiment, experiments were performed on a BIAcore™ T100/T200 instrument (Pharmacia Biosensor AB) in the multichannel mode (serial flow path involving flow cells 1+2+3+4). Flow rate was 10 μl/min; temperature was 25° C.; and data were recorded at 2.5 points/s. All four segments of a sensor chip CMS were coated with streptavidin (Sigma) to a density of 2000 pg/mm² (2000 resonance units) by the aminocoupling procedure. ActRIIBecd (10 mg) and amine-PEG3-Biotin (10 mg, Pierce, Rockford, Ill.) were dissolved in 200 μl H₂O and 10 mg NaCNBH₃ was added to prepare biotinylated ActRIIBecd. The reaction mixture was heated at 70° C. for 24 h, after that a further 10 mg NaCNBH₃ was added and the reaction was heated at 70° C. for another 24 h. After cooling to room temperature, the mixture was desalted with the spin column (3,000 molecular weight cut off (MWCO)). Biotinylated ActRIIBecd was collected, freeze-dried and used for streptavidin (SA) chip preparation. Amino-biotinylated ActRIIBecd was then immobilized independently on flow cells 2-4 for 10 minutes at a flow rate of 5 μL/min and a concentration of 20 μM in 10 mM sodium acetate, pH 4.0, at a density of 50-250 resonance units (RU). The stored polypeptides were dissolved in glycine buffer (2.5 g of glycine, 0.5 g of sucrose, 370 mg of L-glutamate, 10 mg of sodium chloride, and 10 mg of Tween 80 in 100 mL water, pH 4.5) to prepare 10 mg/mL solution and then diluted with previous glycine buffer to prepare analytes with various concentration. Sensograms were recorded during flow of the analyte (the ActRIIBecd-associated polypeptides (i.e., domains) as previously described) first through flow cell 1 (control) then through flow cell 2 (biotinylated ActRIIBecd). The sensogram obtained for flow cell 1 was subtracted from the sensogram obtained for flow cell 2. The sensograms obtained at 1.11, 3.33, 10, 30, and 90 nM analyte were evaluated for equilibrium binding, association rate, and dissociation rate by using the programs supplied with the instrument (BIA evaluation 2.1; Software Handbook. 1995; Pharmacia Biosensor AB).

Experiment [5] shares this target. Put plainly: BIAcore SPR as Example 5 (method not restated); SD ±2.89 nM. How it is done: as §1
For experiment [6] the target is unchanged. Put plainly: BIAcore SPR as Example 5 (method not restated); SD ±2.06 nM. How it is done:
as §1

For experiment [7] the target is unchanged. Put plainly: BIAcore SPR as Example 5 (method not restated); SD ±1.98 nM. How it is done:
as §1

The target is the same in experiment [8]. Put plainly: BIAcore SPR as Example 5 (method not restated); SD ±1.62 nM.
For experiment [9] the target is unchanged. Kind of experiment: BIAcore SPR as Example 5 (method not restated); SD ±1.79 nM. How it is done:
as §1

Experiment [10] shares this target. Kind of experiment: BIAcore SPR as Example 5 (method not restated); SD ±2.62 nM. The method, then: as §1
Experiment [11] shares this target. Kind of experiment: BIAcore SPR, biotinylated ActRIIBecd on chip; SD ±16.41 nM. How it is done:
as §1

The target is the same in experiment [12]. Kind of experiment: BIAcore SPR, biotinylated ActRIIBecd on chip; SD ±13.51 nM. How it is done: as §1
Experiment [13] shares this target. Kind of experiment: BIAcore SPR as Example 5 (method not restated); SD ±3.12 nM. The method, then:
as §1

The target is the same in experiment [14]. Kind of experiment: BIAcore SPR as Example 5 (method not restated); SD ±1.70 nM. How it is done:
as §1

Experiment [15] shares this target. Put plainly: BIAcore SPR as Example 5 (method not restated); SD ±1.09 nM. The method, then:
as §1

For experiment [16] the target is unchanged. Kind of experiment: BIAcore SPR as Example 5 (method not restated); SD ±2.21 nM. The method, then:
as §1

For experiment [17] the target is unchanged. Put plainly: BIAcore SPR as Example 5 (method not restated); SD ±3.09 nM. How it is done: as §1
The target is the same in experiment [18]. Put plainly: BIAcore SPR as Example 5 (method not restated); SD ±1.56 nM. The method, then: as §1

Bridges are numbered along the chain shown (N, C = ends).

Results on 19 molecules are retold here after patent publication US20190071480A1 (Biogen, published 2019).

Regarding AQAKHKQRKRLKSSCKRHPLY [Clone No. 10 domain (ActRIIBecd-associated polypeptide)], binding in [1] was put at a Kd of 36.4 nM.
On to AQAKHKGRKRLKSSCKRHPLY [Clone No. 11 domain (ActRIIBecd-associated polypeptide)], for which the Kd (usually the constant that tells how readily two partners part at equilibrium) in experiment [2] was 63.7 nM.

B1: SEQ ID NO: 200, cysteine pairs C23-C27^a, C58-C91^a, C59-C93^a (designed binder)
chain: VDFSDVGWNDWIVAPPGYHAFYCHGECPFPLADHLNSTNHAIVQTLVNSVNSKIPKACCVPTELSAISMLYLDENEKVVLKNYQDMVVEGCGCR
modifications: disulfides C23-C27 (intra), C58-C91 (intra), C59-C93 (intra)
With B1, the Kd in experiment [3] and in [4] was 18.6 nM throughout.

B2: SEQ ID NO: 200, cysteine pairs C23-C58^a (designed binder)
chain: B1 chain
modifications: disulfides C23-C58 (intra)
B2: the Kd in experiment [5] and in [4] was 47.6 nM in each case.

B3: SEQ ID NO: 200, cysteine pairs C23-C27^a, C58-C93^a, C59-C91^a (designed binder)
chain: B1 chain
modifications: disulfides C23-C27 (intra), C58-C93 (intra), C59-C91 (intra)
As for B3, the Kd in experiment [6] and in experiment [4] was 20.1 nM in each case.

B4: SEQ ID NO: 200, cysteine pairs C23-C27^a, C58-C91^b, C59-C93^b (designed binder)
chain: B1 chain
modifications: disulfides C23-C27 (intra), C58-C91 (inter), C59-C93 (inter)
notes: homodimer by intermolecular disulfide
Consider B4, for which the Kd in experiment [4] and in experiment [7] was 19.8 nM in each case.

B5: SEQ ID NO: 218, cysteine pairs C15-C15^b, C29-C62^a, C30-C64^a (designed binder)
chain: AQAKHKQRKRLKSSCKRHPLYNSKIPKACCVPTELSAISMLYLDENEKVVLKNYQDMVVEGCGCR
modifications: disulfide 29-62, 30-64; also: homodimer via intermolecular C15-C15 disulfide
notes: as for B4
On to B5, for which the Kd in experiment [8] and in [4] was 16.2 nM in each case.

B6: SEQ ID NO: 218, cysteine pairs C15-C15^b, C29-C64^a, C30-C62^a (designed binder)
chain: B5 chain
modifications: disulfide 29-64, 30-62; also: homodimer via intermolecular C15-C15 disulfide
notes: as for B4
As to B6, the Kd in experiment [4] and in experiment [9] was 18.4 nM throughout.

B7: SEQ ID NO: 218, cysteine pairs C15-C30^a (designed binder)
chain: B5 chain
modifications: disulfide 15-30
As for B7, the Kd in [10] and in experiment [4] was 40.9 nM in each case.

B8: Recombinant polypeptide of clones 18 + 17 (designed binder)
chain: VDFSDVGWNDHAVAPPGYHAFYCHGECPFPLADHLNSTNHAIVQTLVNSVVDFSDVGWNDWIVAPPGYHAFYCHGECPFPLADHLNSDNHAIVQTLVNSV
Consider B8, for which the Kd in [11] was 66.4 nM.

B9: Recombinant polypeptide of clones 21 + 15 + 10 (designed binder)
chain: NSKIPKACCVPTELSAISMLYLDENEKVVLKNYQDMVVEGCGCRVDFSDVGWNDWIVAPPGYHAFYCHGECPFPLADHLNSTNHAIVQTLVNSVAQAKHKQRKRLKSSCKRHPLY
The molecule B9 displayed a dissociation constant Kd in experiment [12] of 14.2 nM.

B10: Recombinant polypeptide of clones 15 + 10 (designed binder)
chain: VDFSDVGWNDWIVAPPGYHAFYCHGECPFPLADHLNSTNHAIVQTLVNSVAQAKHKQRKRLKSSCKRHPLY
For the molecule B10, the Kd in experiment [12] was 29.7 nM.

B11: SEQ ID NO: 206, cysteine pairs C67-C71^a, C8-C41^a, C9-C43^a (designed binder)
chain: NSKIPKACCVPTELSAISMLYLDENEKVVLKNYQDMVVEGCGCRVDFSDVGWNDWIVAPPGYHAFYCHGECPFPLADHLNSTNHAIVQTLVNSV
modifications: disulfides C67-C71 (intra), C8-C41 (intra), C9-C43 (intra)
For the molecule B11, the Kd in [13] and in [4] was 15.5 nM in each case.

B12: SEQ ID NO: 206, cysteine pairs C67-C71^a, C8-C43^a, C9-C41^a (designed binder)
chain: B11 chain
modifications: disulfides C67-C71 (intra), C8-C43 (intra), C9-C41 (intra)
For the molecule B12, the Kd in experiment [14] and in experiment [4] was 17.7 nM each time.

B13: SEQ ID NO: 206, cysteine pairs C8-C71^a (designed binder)
chain: B11 chain
modifications: disulfides C8-C71 (intra)
In the case of B13, the Kd in [15] and in experiment [4] was 49.7 nM throughout.

B14: Clone No. 30 domain (ActRIIBecd-associated polypeptide) (peptide)
chain: TALDGTRGAQGSGGGGGGGGGGGGGGGGGGGGAGRGHGRRGRSRCSRKSLHVDFKELG
In turn, B14 came in with a Kd in experiment [11] of 61.7 nM.

B15: SEQ ID NO: 212, cysteine pairs C59-C59^b, C8-C41^a, C9-C43^a (designed binder)
chain: NSKIPKACCVPTELSAISMLYLDENEKVVLKNYQDMVVEGCGCRAQAKHKQRKRLKSSCKRHPLY
modifications: disulfide 8-41, 9-43; also: homodimer via intermolecular C59-C59 disulfide
notes: as for B4
Take B15: the Kd in [4] and in [16] was 18.1 nM in each case.

B16: SEQ ID NO: 212, cysteine pairs C41-C59^a (designed binder)
chain: B15 chain
modifications: disulfide 41-59
Regarding B16, the Kd in [4] and in experiment [17] was 44.3 nM each time.

B17: SEQ ID NO: 212, cysteine pairs C59-C59^b, C8-C43^a, C9-C41^a (designed binder)
chain: B15 chain
modifications: disulfide 9-41, 8-43; also: homodimer via intermolecular C59-C59 disulfide
notes: as for B4
Turning to B17, the Kd in experiment [18] and in [4] was 19.3 nM throughout.
